Reference: the DeepSol protein solubility set

Experiment: soluble on expression in E. coli; label from the status in PepcDB or PDB records

Soluble on expression in E. coli, not soluble:
MSANKELQQGYSDYSAASDQAALLNRLITAMQKGELTDELLEHIPELGDAKKLNDKLKYRKSILEKSIAEQAAKNKKNGVKATSTSSPSSSTSAPAEKKAKKDGKTGGAPPKQAKKVDYVTVEDYGSSIFGRLQSLFKKAIEDAFPGLDVPLLLAETPNPQFGDYQCNSAMPIAAKLKANKINKRPGDVAKEIQAKLPTKIDFVEKIDVMPAGFINIFLNTDYLRRQISLLASEGVKLPKLTRKRVLVDFSSPNIAKEMHVGHLRSTIIGDSICRLFEAVGFDVLRVNHIGDWGTQFGMLIAHLYDRFPDFLKKLPDISDLQAFYKESKKRFDEDEQFKKRAYEYVVKLQSHDGDIVKAWNTICDVSKKYNQIVYNYLDIKIKDVGESFYQDKMIELVKWVKTNKPDMLREEDGRQIMFPTGCDIPLTVVKSDGGFTYDTSDLAALKYRMLEEKCDWNIYVVDSGQSLHLETVYAAGRDFGWYDESIQRVEHVAFGLVLGDDKKKFKTRSGETVRLLDLLSEGVKRATEKLIEKGRETAMSEEQLVAARDAVAFGCVKYADLSHTRTQDYVFSFDRMLEDRGNTAVYLLYAYTRIQSIFEKDEVKNVDLVKYIASTPTLPLDHPGEFKLAKQLLKLSDCVLLVLDSLMLHQMCDYVYQLATLFHDFYNECYVIENKEGEKPFVHMHRLALCDVTRKVMSTCFKILGLREVNKM
MPIRAMEKATAGKLLTRAEALSLLTEGDLLALGRLADAVRRRMHPENLVTFVVDRNVNYTNVCESKCKFCAFYRDEAAPDAYLLAEEAIFAKIAELVEHGGTQLLMQGGLHPQLGIDWFEDLFRGIKARFPQVQNHSLSPAEITQIATVSKLTIPETVRRLREAGLDSIPGGGAEILVDSVRQEISPRKIGWEGWAAVMSEAARQGMATTATMMFGSRETPEDIVEHLFRVRELQAAGGSFTAFIPWTYQPGNTELGGTGATGVEYLKVLALSRIVLDNIPSIQASWVTQGAAMAQVSLFFGANDLGGTMLEENVVAAAGCTFRMSREEMVELIREAGFRAAQRTTLYSIIREY
MKTLEKRMKALDKRIMKFGKSLEGRLDARLIESALDYIHYSERFLAFEILCTYIEDFDVRLTEQESREISFINKEFEIESTSD
MGSDKIHHHHHHMREHDEGLLNGITPDRIRDHIRALEGVRHPLAAPEALERAAGYIRETFGSLGYPVADHLFMDGGREFANIIATHTGGSKSGRRVLVVAHYDTVTTTPGADDNASGVAVLLELATILKCLRFERCLQFVAVTLEENEDEHNPRDLGTRGSRALAAHARREGWEIEGAVVLESVAYAGDAVVQRTPAGIPFTVPATGNFIGVIGNEASRGMVDRFGQAVGSREAGLPWVPLVVPGNGGLLPDSRRSDHAPFWDHGYKAIMLTDTTNFRNPHYHQPSDTLETLNLDFAVQVCRATAALLLDIAKASEP
GLLMEGDEPAGGKWNFDTENRKPAAPDLLRPRPLRFEPDAEVRAVLDLVEARFPRHFGRLRPFHWATDRAEALRALDHFIRESLPRFGDEQDAMLADDPFLSHALLSSSMNLGLLGPMEVCRRAETEWREGRAPLNAVEGFIRQILGWREYVRGIWTLSGPDYI
MREFSRPKVVISRCLEFDHCRYNGDMISSPVVVKLKKHVDFLPVCPEVEIGLGVPRNPVRIVLDKGDHRLVQPSSGKDVTEDMKSFCSNFLDSIYEVDGFILKFRSPSCGLKDVKVYPSAGSHGGAVEKISGYFGGAVLGRYPFHPVEDEGRLRNARIKEHFLTKLFTFAAFRKVKSEGSIKDLINFHAQNKFLLMAYNQAELQKLGEIAANREKRPWKELISDYENHLYSALSRAPRYTSTINVLMHALGFFSDQLSSREKALFFDWVQKYREGRASVCPAINMIRSWIVRFEDGYLMSQTFFEPYPEDLIEINPVESHLREDLWK
MGSDKIHHHHHHYYYARGTYTHYNLDFDQDVTHLLDLGMKQISLEPVVAQPSDPYAFQEGDLPEILKTYDRLGEELLARRRKGEDFSFFHFNVALDQGPCLPKRLSGCGAGHEYVAISPEGDLYPCHQFVGQEEFKMGSLGQEGVPLNPEIIAKFRSAHVYSKAACRQCWARFSCSGGCHSANHAFSGQLNEVYALGCEFQKKRLEVALYMKIKEA
MDNLQKYKPTDKMIDLISDNYSLLQVMSRFGLSLGFGDKTVKEVCELNGVDCRTFLIVVNFMSEGFSRMDGSSEDISIPALIDYLRQAHIYFLDFSLPAIRRKLIEAIDCSQDDVAFLILKFFDEYTREVRKHMDYEEKTVFKYVDALINGNAPRNYQISTFSKHHDQVGEKLTELKNIIIKYCPAKANENLLNAALFDIYACEAGLESHCKVEDYIFVPAILKLERRIRENEK
MKEKSSVEVRLDKWLWAARFYKTRAMAREMIEGGKVHYNGQRSKPSKIVELNATLTLRQGNDERTVIVKAITEQRRPASEAVALYEETAESVEKREKMAQARKLNALTMPHPDRRPDKKERRDLLRFKHGDSE
MGSDKIHHHHHHMSEFDAIFVGAGHNSLACAAHLALKGWKTGIFERSSTIGGAVQTREFTLPGFRHDFGAMNLSLFAGSAFHRKYANELKTQGLEFAPVADCFASAFPDGRWFGVSNDLEKTASRMAAFSAADAATWRKLVAAFPGEAEHLFRLLGSPMSARALAGTAWNLWRKKGVAGALDTGRLLLSSPRTWLEETFESPYVRATLATWGMHLDFAPDIAGGAVFPYLESMANQSFGMVLGKGGADTIIRALAGMVTSAGGKIVTGAEVSEITVSNGKATGVRLTSGETHTATKAVIAGVAPKALTGTLLPGGSGNAGFDTAMKKFRYAPGTMMIHLALDELPGWRAGSELRQFAYVHLSPSLDAMSRTYQQAMAGMLPDEPVLVVGQPTAIDPSRAPQGKHVLWVQVRMLPAEITGDAGGKIAPAHWDQVKDAYAERVLDIIETYAPGLRSKILGRSVFSPIDLERENPNLVGGDQVCGSHHLAQNFLFRPARGYAGWNTPVGNLHLTGAATWPGAGTGAASGFMLAQQLGGR
GFRVFIFIILHFVLTNCIREDMSGCPRDDGGLALKFSYDTNADSRLSTAQGVDRLAVFIFDEKGLFISQVNDSMTSINDDYVMELPYKQGSYQFVAWGGYDKSTYQTSECVPRKTYIDDFFLSVKRQEDNQVTNQPKLLYHGMHDIVELNSKEKTIVLINLKQMTNHIRVIAHNLNQDRSDNIYIEDNNGKYGYDSQFSDDDRITYIPIYEASSEQSNPLIADFNVMRLEKDREPWLRIADKTGTIRYDENLIGKLIGGNPNIDFEHNHDFTIEISFDNYIPVIIKINGWEIVNEEI
MLPQRLKKAITDNPKKLGNLIDLVNLPSTLRNFVGQSQISRLGCFMRVWSYIKTNNLQDPKNKNVVICDEKLKSILLGKQRVELVDLPSLIKLHFPKEQKKNSQKI
DLRFFGDFVLEGDARLGEVAALYGLKLDGIDPGMPLSQFIVQKNRGEPVVGDQIEWNGTIWTVAVMDGNKIQKVGVKFPEGTRPGPGLFL
MKENFLKQKRMEKNLTLEQVGNFVGVGKSTVRKWETGMIENMGRDKIVALSKILDVSPLEILGIPETEETPFVVPTNIMNIYKQLTTENQEAVFRYAQKKLTEQNYF

Soluble on expression in E. coli, soluble:
MKKKSVWIKADEGGWEEQKERITTGLESGADCVLVNPGDVEKVRELGNITVAAFARDNKSGADIVVVGKRGEGDGTKPLPQEIPGSFDVNAATLLTDKGVTVGGYVVIKDRSYERFAAEMGKICDYLLVTGTDWKVIPLENLIADLQREKVKIIFGVKSAEEARLAFQTLETGADGVLLDSGNPQEIKDTIKAARELESESTELESAVVTRVEPLGMGDRVCVDTCNLMQRGEGMLIGSQASGMFLVNSESDDSPYVAARPFRVNAGAVHSYIKIGDKTRYLSELQAGDSVTIIDSRGKQREGIVGRIKIESRPLMLIEAKAGDRTLTAILQNAETIKLVGKGGTPISVAKLKKGDEVLVRLEEGARHFGKKIEETIIEKLEHHHHHH
MKRQWALEDFEIGRPLGKGKFGNVYLAREKQSKFILALKVLFKAQLEKAGVEHQLRREVEIQSHLRHPNILRLYGYFHDATRVYLILEYAPLGTVYRELQKLSKFDEQRTATYITELANALSYCHSKRVIHRDIKPENLLLGSAGELKIADFGWSVHAPSSRRTDLCGTLDYLPPEMIEGRMHDEKVDLWSLGVLCYEFLVGKPPFEANTYQETYKRISRVEFTFPDFVTEGARDLISRLLKHNPSQRPMLREVLEHPWITANSSKPSNCQNKESAAAALEHHHHHH
MSAEVLVYRGSLVENRHRVSLALWGPEGLVAYAGDPGRVAYLRSSAKPFQALALYLTGAVERFGLTEEEVALATASHDGTPRHVEVAARFLGKLGLGPEHLVCGVHPPFSREARAALEAQGLAPTPLHHNCSGKHAGMLAAALALGAPAEGYHLPDHPVQRLNLATLEALSGARPGLATDGCSVPTFALSLARAARAFFLLADPGRAPEAYRTPLLRVREAMRRHPDLVAGPGSVDTLLMERLPVVAKRGADGYYGLALLEGPRGPLGVALKVEDGATLAREVAVVALLRALGLDPGKTPWDRPPVRNHRGLEVGHLEARLGLVWV
HHHHHHGSGAVKLSVSYRNGTLFIMVMHIKDLVTEDGADPNPYVKTYLLPDTHKTSKRKTKISRKTRNPTFNEMLVYSGYSKETLRQRELQLSVLSAESLRENFFLGGITLPLKDFNLSKETVKWYQLTAATYL
SMKFQARVLTLYPEMFPGFLGCSLAGQALKQGIWSLETVQIRDFALDKHHSVDDTPAGGGAGMVMRADVLAAALDSCPNDSPRLLMSPRGRLLNQAYARSLARSSGVTLVCGRFEGVDERIIEARELEEVSIGDYILSGGETAALVLLDAIVRLLPGVMGNEISAKCESFENGLLEHPQYTRPAVFEGRGIPPVLTSGHHKAIANWRQQQAESLTRQRRPDLYALYNKNRQKT
MSLSGKDLGRAIEQAINKKIASGSVKSKAEVARHFKVQPPSIYDWIKKGSISKDKLPELWRFFSDVVGPEHWGLNEYPIPTPTNSDTKSELLDINNLYQAASDEIRAIVAFLLSGNATEPDWVDHDVRAYIAAMEMKVGKYLKALESERKSQNITKTGTEGHHHHHH
MEKSKPNVVFVLGGPGSGKGTQCANIVRDFGWVHLSAGDLLRQEQQSGSKDGEMIATMIKNGEIVPSIVTVKLLKNAIDANQGKNFLVDGFPRNEENNNSWEENMKDFVDTKFVLFFDCPEEVMTQRLLKRGESSGRSDDNIESIKKRFNTFNVQTKLVIDHYNKFDKVKIIPANRDVNEVYNDVENLFKSMGF
MPLTLNQLAELSGRASEHVLAEEVEETGTPAEEILARLRERLAVMRDSVRRGLASDAPSVAGLVGKNAKTLWEAPDPLQDPLLKRVQAYAMAVNEENARMGRIVAAPTAGSAGTLPGALLGVADHLGIPDEELLMPLVLAGGVAKMIGRVIHIAGASGGCQAEIGSSAAMAAAAVTELLGGTPEACAHAAALALQNTLGLVCDPVGGFVEVPCVMRNGFYAVHAVSAASMALAGIRSVIPPDEVVLAMAGIGRLLPLELKETGLGGLADTPTGRRLAEEALKKT
MGSSHHHHHHSSGRENLYFQGHMIPEHLSIYTAYNANIAAIVKLNQETIQNLINAFDPDEVKRRIEEYPREINEPIDFVARLVHTLKLGKPAAVPLVNEKMNEWFDKTFRYEEERLGGQAGIIANTLAGLKIRKVIAYTPFLPKRLAELFKKGVLYPVVENGELQFKPIQEAYREGDPLKINRIFEFRKGLKFKLGDETIEIPNSGRFIVSARFESISRIETREDIKPFLGEIGKEVDGAIFSGYQGLRTKYSDGKDANYYLRRAKEDIIEFKEKDVKIHVEFASVQDRKLRKKIITNILPFVDSVGIDEAEIAQILSVLGYRELADRIFTYNRLEDSILGGMIILDELNFEILQVHTTYYLMYITHRDNPLSEEELAKSLEFGTTLAAARASLGDIRGPDDYKVGLKVPFNERSEYVKLRFEEAKSRLRMREYKVVVIPTRLVQNPVLTVGLGDTISAGAFLTYLEFLKRHGS
